Measured values as given in the nanobody polyreactivity screen of Harvey et al. (2022).

Assay: yeast display, Sf9 membrane polyspecificity reagent, FACS + sequencing; frameworks hold sequencing errors
Procedure, shortened: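 A nanobody's polyreactivity label depends on the gate it was sorted from. Yeast display cells were stained with 10% biotinylated, detergent-solubilized Sf9 membrane reagent for 1 hour at 4 °C, enriched on streptavidin microbeads and sorted by FACS. The low and high (top ~1%) gates were set on anti-HA fluorescence for expression and streptavidin fluorescence for reagent binding.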

| Sequence | polyreactivity (PSR sort gate) |
| --- | --- |
| QVQLVESGGGLVQAGGSLRLSCAASGSIFEPYTMGWYRQAPGKERELVAAITGSGGSTFYADSVKGRFTISRDNAKNTVYLQMNSLKPEDTAVDYCNAYAYPYTDVDYWGQGTQVTVSS | low polyreactivity |
| QVQLVESGGGLVQAGGSLRLSCAASGSIFEPYVMGWYRQAPGKERELVAAIRQTGGSTYYADSVKGRFTISRDNAKNTVYLQMNSLKPEDTAVYYCNAEQNPSGLYDYRGVEGEMGYWGQGTQVTVSS | low polyreactivity |
| QVQLVESGGGLVQAGGSLRLSCAASGSIFEQYTMGWYRQAPGKERELVAAISRRSGRTYYADSVKGRFTISRDNAKNTVYLQMNRLKPEDTAVYYCNTVYYGNFYSTRYDYWGQGTQVTVSS | high polyreactivity |
| QVQLVESGGGLVQAGGSLRLSCAASGSIFERNAMGWYRQAPGKERELVAGISSSGRTNYADSVKGRFTISRDNAKNTVYLQMNSLKPEDTAVYYCSADTYLYWEYDYWGQGTQVTVSS | low polyreactivity |
| QVQLVESGGGLVQAGGSLRLSCAASGSIFERYAMGWYRQSPGKEREFVATITSGGGRTYYADSVKGRFTISRENAKNTVYLQMNSLKPEDTAVYYCGAASYRRQPFNYWGQGTQVTVSS | high polyreactivity |
| QVQLVESGGGLVQAGGSLRLSCAASGSIFERYSMGWYRQATGKERELFATISKSGDSKYYADSVKGRFTISRDNAKNTVYFQMNRLKPEDTAVYYCSADGWYETSDATFYYWGQGTQVNVSS | low polyreactivity |
| QVQLVESGGGLVQAGGSLRLSCAASGSIFESNAMGWYRQAPGKERELVAAYADSVKGRFTISRDNAKNTVYLQMNSLKPEDTAVYYCAKSLSLYVVPLYEYWGQGTQVTVSS | low polyreactivity |
| QVQLVESGGGLVQAGGSLRLSCAASGSIFESYVMGWYRQAPGKERELVAAISYTGDDTYYADSVKGRFTISRDNAKNTVYLQMNSLKPEDTAVYYCNADNYYYYPWYVRALDSWGQGTQVTVSS | low polyreactivity |
| QVQLVESGGGLVQAGGSLRLSCAASGSIFEVYAMGWYRQAPGKEREFVATISGSGGSTYYADSVKGRFTISRDNAKNTVYLQMNSLKPEDTAVYYCAASIAWYSSFVITYYYWGQGTQVTVSS | low polyreactivity |
| QVQLVESGGGLVQAGGSLRLSCAASGSIFEWYAMGWYRQAPGKERELVATITGSGGSTYYADSVKGRFTISRDNAKNTVYLQMNSLKPEDTAVYYCAAVPPPGGLDYWGQGTQVTVSS | high polyreactivity |
| QVQLVESGGGLVQAGGSLRLSCAASGSIFEYYAMGWYRQAPGKERELVAAITWSGGSTYYADSVKGRFTISRDNAKNTVYLQMNSLKPEDTAVYYCAKGYYVYGIFHRFGYYWGQGTQVTVSS | high polyreactivity |
| QVQLVESGGGLVQAGGSLRLSCAASGSIFFDGNAMGWYRQAPGKERELVAAISVSGGSTYYADSVKGRFTISRDNAKNTVYLQMNSLKAEDTAVYYCAKYPSKSYVPGDYWGQGTQVTVSS | low polyreactivity |
| QVQLVESGGGLVQAGGSLRLSCAASGSIFFENDMGWYRQAPGKEREFVAAISLSSASTYYADSVKGRFTISRDNAKNTVYLQMNSLKPEDTAVYYCAADAIFGWPTFDYWGQGTQVTVSS | low polyreactivity |
| QVQLVESGGGLVQAGGSLRLSCAASGSIFFGNAMGWYRQAPGKERELVAAIDGTGASTYYADSVKGRFTISRDNAKNTVYLQMNSLKPEDTAVYYCNKALTSKDYPVRTVERDYWGQGTKVTVSS | low polyreactivity |
| QVQLVESGGGLVQAGGSLRLSCAASGSIFFGYAMGWYRQAPGKERELVAAISTRGGRSYYADSVKGRFTISRDNAKNTVYFQMNSLKPVDTAVYYCNAASLVQAYSHADERYDYWGQGTQVTVSS | high polyreactivity |
| QVQLVESGGGLVQAGGSLRLSCAASGSIFFGYAMGWYRQAPGKERELVAGISSNGGTTYYADSVKGRFTISRDHANNTVNLQMNSQKPEDTAVYDCATQYYARGYLYDYWGQGTQVTVSS | low polyreactivity |
| QVQLVESGGGLVQAGGSLRLSCAASGSIFFINAMGWYRQAPGKERELVASISQSGVSTYYADSVKGRFTISRDNAKNTVYLQMNSLKPEDTAVYYCATGPVRRARYVWSYTYYYWGQGTQVTVSS | low polyreactivity |
| QVQLVESGGGLVQAGGSLRLSCAASGSIFFIYAIGWYRQAPGKQRELVATISSGGSTYYADSVKGRFRISRDIAKNTVYLQMNSLKPEDTAVYYCAADGIVQDGLEWEYDYWGQGTQVTVSS | low polyreactivity |
| QVQLVESGGGLVQAGGSLRLSCAASGSIFFLYAMGWYRQAPGKERELVAAISLSTGNTYYADSVKGRFTISRDNAKNTVYLQMNSLKPEDSAVYYCAATYVSISYRYDYWGQGTQVTVSS | high polyreactivity |
| QVQLVESGGGLVQAGGSLRLSCAASGSIFFLYAMGWYRQAPGKERELVAAISVGGGSTYYADSVKGRFTFSRDNAKNTVYLHMNSLKPEDTAVYYCAALSKTRGGYWGQGTQVTVSS | high polyreactivity |
| QVQLVESGGGLVQAGGSLRLSCAASGSIFFNYAMGWYRKAPGKERELVATITSGGSTYYADSVKGRFTISRDNAKNTVYLQMNSLKPEDTAVYYCAVDEYFAFDYWGQGTQVTVSS | low polyreactivity |

| Sequence | polyreactivity (PSR sort gate) |
| --- | --- |
| QVQLVESGGGLVQAGGSLRLSCAASGSIFFNYAMGWYRQAPGKERELVAAITRSGGSTYYADSVKGRFTISRDNAKNTVYLQMNSLKPEDTAVYYCAARYPFGSLGRYGYWGQGTQVTVSS | high polyreactivity |
| QVQLVESGGGLVQAGGSLRLSCAASGSIFFPNAMGWYRQAPGKERELVAAIRGGTNTYYADSVKGRFTISRDNAKTTVYLQLNSLKPEDTAVYYCAARRSSHWFTYDYWGQGTQVTVSS | high polyreactivity |
| QVQLVESGGGLVQAGGSLRLSCAASGSIFFPYAMGWYRQAPGKERELVAAISYSGTSRYYADSVKGRFTISRDNAKNTVYLQMNSLKPEDTAVYYCAAYSRYYASYDYWGQGTQVTVSS | high polyreactivity |
| QVQLVESGGGLVQAGGSLRLSCAASGSIFFSNAMGWYRQAPGKERELVAGIRSGGITNYADSVKGRFTISRDNAKNTVYLQMNSLKPEDSAVYYCAKLKDHGRYAYAFDYWGQGTQVTVSS | low polyreactivity |
| QVQLVESGGGLVQAGGSLRLSCAASGSIFFVNDMGWYRQAPGKERELVAAITRDGGTNYADSVKGRFTISRDNAKNTVYLQMNSLKPEDTAVYYCAKESGSVLSLYDYWGQGTQVTVSS | low polyreactivity |
| QVQLVESGGGLVQAGGSLRLSCAASGSIFFVYDMGWYRQAPGKERELVAAITWSGGRTTYADSVKGRFTISRDNAKNTVYLQMNSLKPEDTAVYYCAKAWPDHWYSRYDYWGQGTQVTVSS | low polyreactivity |
| QVQLVESGGGLVQAGGSLRLSCAASGSIFFWYTMGWYRQAPGKERDLVATITGSGSSTTYADSVKGRFTISRDNAKNTVYLQMNSLKPEDTAVYSCAAADIIDHSFPYDYWGQGTQVTVSS | low polyreactivity |
| QVQLVESGGGLVQAGGSLRLSCAASGSIFFWYTRGWYRQEPGKERQLVATITGSGSSTTYADSVKGRFTISRDNAKNSVYLQMNSLKPEDTAVYYCAAADIIDHSFPYDYWGQGTQVTVSS | low polyreactivity |
| QVQLVESGGGLVQAGGSLRLSCAASGSIFFYNAMGWYRQAPGKERELVAAISRGGSTYYADSVKGRFTISRDNAKNTVYLQMNSLKPEDTAVYYCAVQRRRNSNVLFDYWGQGTQVTVSS | high polyreactivity |
| QVQLVESGGGLVQAGGSLRLSCAASGSIFFYNTMGWYRQARGKERELVATINSDDSTYYADSVKGGFTISRDNAKNTVYIQMNSLKPEDTAVYYCNVRVKGGKLVAYDYWGQGTQVTLSS | low polyreactivity |
| QVQLVESGGGLVQAGGSLRLSCAASGSIFFYYAMGWYRQAPGKERELVAAINSDGSTNYADSVKGRFTISRDNAKNTVYLQMNSLKPEDTAVYYCAAYDEYYGYDYWGQGTQVTVSS | low polyreactivity |
| QVQLVESGGGLVQAGGSLRLSCAASGSIFFYYAMGWYRQAPGKERELVAAISYSDGTTYYADSVKGRFTISRDNAKNTVYLQMNSLKPEDTAVYYCAADLWVGLVSLWDGYVEYDYWGQGTQVTVSS | low polyreactivity |
| QVQLVESGGGLVQAGGSLRLSCAASGSIFGANTMGWYRQAPWKERELVAGITSRARTYYADSVKGRFTISRDNAKNTVYLQMNSLKPEDTAVYYCAAKYAWRRYGYWGQGTQVTVSS | high polyreactivity |
| QVQLVESGGGLVQAGGSLRLSCAASGSIFGAYAMGWYRQAPGKERELVAAINYGGATTYYADSVKGRFTISRDNAKNTVYLQMNSLKPEDTAVYYCAADYLYAYGDVAVVYGWYAYYYWGQGTQVTVSS | low polyreactivity |
| QVQLVESGGGLVQAGGSLRLSCAASGSIFGAYTMRWYRQAPGKERELVAAITGGGITNYADSVKGRFTISRDNAKNTVYLQMNSLKPEDTAVYYCNAGYPPQTVVVGYDYWGQGTQVTVSS | low polyreactivity |
| QVQLVESGGGLVQAGGSLRLSCAASGSIFGDNAMGWYRQAPGKERELVAAINYNGGRTYYADSVKGRFTISRDNAKNTVYLQMNSLKPEDTAVYYCAKDNYQAPVQQYPFDYWGQGTQVTVSS | low polyreactivity |
| QVQLVESGGGLVQAGGSLRLSCAASGSIFGDNAMGWYRQAPGKERELVAAISIVGSTSYADSVKGRFTISRDNAKNTVYLQMNSLKPEDTAVYDCAAEIVRSDTGFDYWGQGTQVTVSS | low polyreactivity |
| QVQLVESGGGLVQAGGSLRLSCAASGSIFGDNAMGWYRQAPRKERELVAVISSSGSTYYADSVKGRFTISRDNAKNTVFLQMNSLKPEDSAVYYCNAYQFDWYEEYYYWGQGTQVTVSS | low polyreactivity |
| QVQLVESGGGLVQAGGSLRLSCAASGSIFGDYAMGWYRQAPGKEREFVAGITRRGGRTYYADSVKGRFTISRDNAKNTVYLQMNSLKPEDTAVYYCNAVYSSSLRSKYDYWGQGTQVTVSS | high polyreactivity |
| QVQLVESGGGLVQAGGSLRLSCAASGSIFGDYAMGWYRQAPGKERELVATITWIGGSTYYADSVKGRFTISRDNAKNTVYLQMNSLKPEDTAVYYCAATKYVDVKYYYWGQGTQVTVSS | low polyreactivity |
